Laboratory results: publication PMC9756848

Legend:
Flag-hAPRIL (human) = test: SEC; Superdex S200 Increase HR 10/30, PBS 10 ug/ml BSA, 0.7 ml/min; proteins alone or Flag-ligand with a 20-fold mass excess of atacicept; fractions analysed by Western blot; complexes of fractions 10 and 11 concentrated and run again
[1] = target: endogenous BAFF (human serum) (human (endogenous in serum)); test: SEC; 300 ul serum of an atacicept-treated SLE patient (pre-dose, 4 weeks of treatment, 12 weeks after treatment end) fractionated in PBS; BAFF ELISA and non-reducing anti-TACI Western blot of the fractions

stoichiometry N (Flag-hAPRIL (human)) | stoichiometry N [1] | Substance
3 | – | Flag-hAPRIL (ligand)
– | 3 | endogenous BAFF (human serum) (ligand)
